Drawing on article PMC11772155, “Solid-Phase-Supported Chemoenzymatic Synthesis and Analysis of Chondroitin Sulfate Proteoglycan Glycopeptides” (Angewandte Chemie (International ed. in English), 2024), this text covers Kd for four compounds.

Read-outs that look alike come from different tables or passages of the source. Numbered stars: 1 amine (or outer) side, 2 acyl side, 3 side chain; on linkers, the order of the positions; unused ones are H or OH. Square brackets hold non-standard residues; d marks the D form. Peptide text beside a SMILES is read from it. * marks the point of attachment. X1 = CC(=O)N[C@H]1[C@H](O[C@H]2[C@H](O)[C@@H](O)[C@H](O[C@H]3[C@@H](O)[C@@H](CO)O[C@@H](O[C@H]4[C@@H](O)[C@@H](CO)O[C@@H](O[C@@H]5CO[C@@H](OC[C@H](N[*:1])C(=O)[*:2])[C@H](O)[C@H]5O)[C@@H]4O)[C@@H]3O)O[C@@H]2C(=O)O)O[C@H](CO)[C@H](OS(=O)(=O)O)[C@@H]1O[C@@H]1O[C@H](C(=O)O)[C@@H](O[C@@H]2O[C@H](CO)[C@H](OS(=O)(=O)O)[C@H](O[C@@H]3O[C@H](C(=O)O)[C@@H](O[C@@H]4O[C@H](CO)[C@H](O)[C@H](O[C@@H]5O[C@H](C(=O)O)[C@@H](O)[C@H](O)[C@H]5O)[C@H]4NC(C)=O)[C@H](O)[C@H]3O)[C@H]2NC(C)=O)[C@H](O)[C@H]1O; X2 = CC(=O)N[C@H]1[C@H](O[C@H]2[C@H](O)[C@@H](O)[C@H](O[C@H]3[C@@H](O)[C@@H](CO)O[C@@H](O[C@H]4[C@@H](O)[C@@H](CO)O[C@@H](O[C@@H]5CO[C@@H](OC[C@H](N[*:1])C(=O)[*:2])[C@H](O)[C@H]5O)[C@@H]4O)[C@@H]3O)O[C@@H]2C(=O)O)O[C@H](CO)[C@H](OS(=O)(=O)O)[C@@H]1O[C@@H]1O[C@H](C(=O)O)[C@@H](O[C@@H]2O[C@H](CO)[C@H](O)[C@H](O[C@@H]3O[C@H](C(=O)O)[C@@H](O)[C@H](O)[C@H]3O)[C@H]2NC(C)=O)[C@H](O)[C@H]1O; X4 = O=C(O)[C@H]1O[C@@H](O[C@H]2[C@@H](O)[C@@H](CO)O[C@@H](O[C@H]3[C@@H](O)[C@@H](CO)O[C@@H](O[C@@H]4CO[C@@H](*)[C@H](O)[C@H]4O)[C@@H]3O)[C@@H]2O)[C@H](O)[C@@H](O)[C@@H]1O

The target of experiment [1] is T1, Human Neutrophil Cathepsin G (Homo sapiens, UniProt P08311).
T1 construct: Human Neutrophil Cathepsin G was purchased from Athens; purchased Athens Research & Technology, Inc. (Athens, Georgia)
T1 sequence (P08311 21-243 limits assumed): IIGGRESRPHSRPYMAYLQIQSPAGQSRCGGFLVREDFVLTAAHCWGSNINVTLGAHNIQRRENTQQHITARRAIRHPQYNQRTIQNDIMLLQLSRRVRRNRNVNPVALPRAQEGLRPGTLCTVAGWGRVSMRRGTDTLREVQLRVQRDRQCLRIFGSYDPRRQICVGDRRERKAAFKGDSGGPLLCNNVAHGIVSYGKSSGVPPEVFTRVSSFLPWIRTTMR
The experiment can be described thus: BLI (biolayer interferometry) binding assay of immobilized biotinylated compounds with Cathepsin G. An excerpt: With structurally defined glycopeptides in hand, we aim to better understand the structural features needed for bikunin glycopeptide binding. Cathepsin G (CatG), a neutrophil serine protease, plays a crucial role in regulating various physiological processes, including inflammation, digestion, smooth muscle contraction, and tissue remodeling.[64] While CatG has been reported to interact with CSPG, the structural requirement of CSPG binding has not been established.[25] To measure the binding affinity towards CatG, peptides 5 and glycopeptides 10, 18–21 were biotinylated and immobilized on streptavidin coated sensors for biolayer interferometry (BLI) studies. Biotinylated 50 kDa CS and CS-A were also immobilized on the sensors for comparison. […]
General procedure of glycopeptide biotinylation
To a solution of peptide or glycopeptide in DMSO/H 2O (1/1, 0.1 ml) was added NHS-LC-Biotin (4 equiv.) and diisoproylethylamine (pH ~ 8.5). The reaction was incubated at 37 °C for 2 h. Then the mixture was dried in vacuo and purified by HPLC.
General procedure for BLI binding assay
The binding assay was performed on the Octet K2 System (Pall ForteBio). The biotinylated compounds were incubated with streptavidin (SA) sensors for 2 min. The sensor was then balanced in the assay buffer (PBS containing 0.005% P20) and dipped into Cathepsin G solution in assay buffer at 2000 nM, 1000 nM, 500 nM, 250 nM concentrations.
After 5 min of association, the sensor was brought back to the previous assay buffer for a 5 min dissociation step. At the end of the assay, the sensor was regenerated in 2 M NaCl to remove the bound protein. Each measurement was repeated 3 times on the same sensor. The control assay was performed with another sensor loaded with a 2 mM biotin solution.
Figure S3. Binding of peptide and glycopeptides a) 5, b) 10 , c) 18 , d) 19 , e) 20 , f) 21 , g) commercially available biotinylated 50 kDa CS, and h) 50 kDa CS-A to neutrophil Cathepsin G as measured by BLI ( a-h respectively). The biotinylated compounds (50 nM) were immobilized on streptavidin coated biosensors, and human neutrophil Cathepsin G was captured on biosensors with four concentrations at 2000 nM, 1000 nM, 500 nM, 250 nM.
Fitting curves were shown in red lines. […]

Experiment [2] has as its target biotinylated sulfated 10-mer CS-bearing glycopeptide 20 (bikunin). The experiment can be described thus: BLI; biotinylated peptide or glycopeptides immobilised on streptavidin coated sensors; cathepsin G in solution. In general terms: In BLI a coated tip is dipped into the sample, and binding shifts an interference pattern.
The target of experiment [3] is biotinylated sulfated 8-mer CS-bearing glycopeptide 19 (bikunin). The experiment is described as above.
Experiment [4] has as its target biotinylated sulfated 12-mer CS-bearing glycopeptide 21 (bikunin). Described as above.
The target of experiment [5] is biotinylated tetrasaccharide linkage region bearing glycopeptide 10 (bikunin). The experiment is described as above.
In experiment [6] the target is biotinylated non-sulfated chondroitin dodecasaccharide glycopeptide 18 (bikunin). The experiment is described as above.
Where [7] appears, read: biotinylated compounds immobilized on streptavidin sensors, Cathepsin G at 2000, 1000, 500, 250 nM in PBS containing 0.005% P20, read-out: KD (nM) with Cathepsin G.

On to `CC(=O)N[C@H]1[C@H](O[C@H]2[C@H](O)[C@@H](O)[C@H](O[C@H]3[C@@H](O)[C@@H](CO)O[C@@H](O[C@H]4[C@@H](O)[C@@H](CO)O[C@@H](O[C@@H]5CO[C@@H](OC[C@H](NC(=O)CNC(=O)[C@H](CCC(=O)O)NC(=O)[C@H](CCC(=O)O)NC(=O)[C@H](CCC(=O)O)NC(=O)[C@H](CCC(N)=O)NC(=O)[C@@H]6CCCN6C(=O)[C@H](CC(C)C)NC(=O)[C@@H](NC(=O)[C@H](C)N)C(C)C)C(=O)NCC(=O)NCC(=O)NCC(=O)N[C@@H](CCC(N)=O)C(=O)N[C@@H](CC(C)C)C(=O)N[C@H](C(=O)N[C@H](C(=O)N[C@@H](CCC(=O)O)C(=O)N[C@H](C(=O)N[C@H](C(=O)N[C@@H](CCCCN)C(=O)N[C@@H](CCCCN)C(=O)N[C@@H](CCC(=O)O)C(=O)N[C@@H](CC(=O)O)C(=O)N[C@@H](CO)C(=O)O)[C@@H](C)O)C(C)C)[C@@H](C)O)C(C)C)[C@H](O)[C@H]5O)[C@@H]4O)[C@@H]3O)O[C@@H]2C(=O)O)O[C@H](CO)[C@H](OS(=O)(=O)O)[C@@H]1O[C@@H]1O[C@H](C(=O)O)[C@@H](O[C@@H]2O[C@H](CO)[C@H](O)[C@H](O[C@@H]3O[C@H](C(=O)O)[C@@H](O)[C@H](O)[C@H]3O)[C@H]2NC(C)=O)[C@H](O)[C@H]1O` [Compound 19] (H-AVLPQEEEG[X2]GGGQLVTEVTKKEDS-OH; N-terminus and C-terminus assumed), for which the Kd (usually the free concentration of one partner at which half of the binding sites on the other are occupied at equilibrium, for simple one-to-one binding) in experiment [1] (read-out: KD (nM) with Cathepsin G, biotinylated compounds immobilized on streptavidin sensors, Cathepsin G at 2000, 1000, 500, 250 nM in PBS containing 0.005% P20) was found to be 49 ± 5 nM.
On to “Cathepsin G (from UniProt P08311 21-244) (enzyme)”, for which the Kd in experiment [2] was 74 nM; in experiment [3], 49 nM; in experiment [4] it was 56 nM; in experiment [5] it was 650 nM; in experiment [6], 490 nM.
For the compound `CC(=O)N[C@H]1[C@H](O[C@H]2[C@H](O)[C@@H](O)[C@H](O[C@H]3[C@@H](O)[C@@H](CO)O[C@@H](O[C@H]4[C@@H](O)[C@@H](CO)O[C@@H](O[C@@H]5CO[C@@H](OC[C@H](NC(=O)CNC(=O)[C@H](CCC(=O)O)NC(=O)[C@H](CCC(=O)O)NC(=O)[C@H](CCC(=O)O)NC(=O)[C@H](CCC(N)=O)NC(=O)[C@@H]6CCCN6C(=O)[C@H](CC(C)C)NC(=O)[C@@H](NC(=O)[C@H](C)N)C(C)C)C(=O)NCC(=O)NCC(=O)NCC(=O)N[C@@H](CCC(N)=O)C(=O)N[C@@H](CC(C)C)C(=O)N[C@H](C(=O)N[C@H](C(=O)N[C@@H](CCC(=O)O)C(=O)N[C@H](C(=O)N[C@H](C(=O)N[C@@H](CCCCN)C(=O)N[C@@H](CCCCN)C(=O)N[C@@H](CCC(=O)O)C(=O)N[C@@H](CC(=O)O)C(=O)N[C@@H](CO)C(=O)O)[C@@H](C)O)C(C)C)[C@@H](C)O)C(C)C)[C@H](O)[C@H]5O)[C@@H]4O)[C@@H]3O)O[C@@H]2C(=O)O)O[C@H](CO)[C@H](OS(=O)(=O)O)[C@@H]1O[C@@H]1O[C@H](C(=O)O)[C@@H](O[C@@H]2O[C@H](CO)[C@H](OS(=O)(=O)O)[C@H](O[C@@H]3O[C@H](C(=O)O)[C@@H](O[C@@H]4O[C@H](CO)[C@H](O)[C@H](O[C@@H]5O[C@H](C(=O)O)[C@@H](O)[C@H](O)[C@H]5O)[C@H]4NC(C)=O)[C@H](O)[C@H]3O)[C@H]2NC(C)=O)[C@H](O)[C@H]1O` [Compound 20] (H-AVLPQEEEG[X1]GGGQLVTEVTKKEDS-OH; N-terminus and C-terminus assumed), the Kd in experiment [1] (setting [7]) is 74 ± 7 nM.
On the same count and under the same terms, in the case of `CC(C)C[C@H](NC(=O)[C@H](CCC(N)=O)NC(=O)CNC(=O)CNC(=O)CNC(=O)[C@H](CO[C@@H]1OC[C@@H](O[C@@H]2O[C@H](CO)[C@H](O)[C@H](O[C@@H]3O[C@H](CO)[C@H](O)[C@H](O[C@@H]4O[C@H](C(=O)O)[C@@H](O)[C@H](O)[C@H]4O)[C@H]3O)[C@H]2O)[C@H](O)[C@H]1O)NC(=O)CNC(=O)[C@H](CCC(=O)O)NC(=O)[C@H](CCC(=O)O)NC(=O)[C@H](CCC(=O)O)NC(=O)[C@H](CCC(N)=O)NC(=O)[C@@H]1CCCN1C(=O)[C@H](CC(C)C)NC(=O)[C@@H](NC(=O)[C@H](C)N)C(C)C)C(=O)N[C@H](C(=O)N[C@H](C(=O)N[C@@H](CCC(=O)O)C(=O)N[C@H](C(=O)N[C@H](C(=O)N[C@@H](CCCCN)C(=O)N[C@@H](CCCCN)C(=O)N[C@@H](CCC(=O)O)C(=O)N[C@@H](CC(=O)O)C(=O)N[C@@H](CO)C(=O)O)[C@@H](C)O)C(C)C)[C@@H](C)O)C(C)C` [Compound 10] (H-AVLPQEEEGS(X4)GGGQLVTEVTKKEDS-OH) it was 650 ± 80 nM.
